The values that follow come from patent US20230042465A1 (Janssen / Centocor, published 2023).

Experiment [1] deals with T1, recombinant human TNFα (human, UniProt P01375 77-233, 125I-labeled in the receptor binding assay).
T1 construct: also called huTNFα; tumor necrosis factor alpha
The experiment can be described thus: competition radioligand assay: mAb in hybridoma supernatant preincubated with 5 ng/ml 125I-TNFα, then 125I-TNFα bound to plate-coated p55-sf2 counted as cpm. How it is done: The amount of TNFα that bound to the p55 receptor in the presence of the mAbs was determined after washing away the unbound material and counting using a gamma counter. […] Each sample was tested in duplicate. The results shown are representative of two independent experiments.
(§1) 50:l of p55-sf2 at 0.5:g/ml in PBS was added to Optiplates to coat the wells during a one-hour incubation at 37° C. Serial dilutions of the eight TNV cell supernatants were prepared in 96-well round-bottom plates using PBS/0.1% BSA as diluent. […] The mixture was preincubated for one hour at RT. The coated Optiplates were washed to remove unbound p55-sf2 and 50:l of the ¹²⁵I-TNFα/cell supernatant mixture was transferred to the Optiplates. After 2 hrs at RT, Optiplates were washed three times with PBS-Tween. 100:l of Microscint-20 was added and the cpm bound determined using the TopCount gamma counter.
A simple binding assay was done to determine whether the eight TNV mAbs contained in hybridoma cell supernatant were capable of blocking TNFα binding to receptor.

For experiment [2], the target named is T1, recombinant human TNFα. The experiment in a line: inhibition of 125I-TNFα binding to plate-coated p55-sf2, hybridoma supernatant. The method, then:
as §1
A simple binding assay was done to determine whether the eight TNV mAbs contained in hybridoma cell supernatant were capable of blocking TNFα binding to receptor. The concentrations of the TNV mAbs in their respective cell supernatants were first determined by standard ELISA analysis for human IgG.

Experiment [3] concerns the target T1, recombinant human TNFα. The experiment in a line: cell-based or functional assay.
The target of another experiment is T2, human lymphotoxin (human, UniProt P01374 35-205, limits assumed).
T2 sequence (looked up): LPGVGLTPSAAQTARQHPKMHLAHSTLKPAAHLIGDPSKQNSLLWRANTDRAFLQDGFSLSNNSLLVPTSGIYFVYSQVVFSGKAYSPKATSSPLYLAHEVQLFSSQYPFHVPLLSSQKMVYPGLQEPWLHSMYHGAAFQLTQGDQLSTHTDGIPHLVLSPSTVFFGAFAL
The experiment can be described thus: not described.

B1: TNV148 (antibody, human IgG1, kappa, V domains shown)
VH: QVQLVESGGGVVQPGRSLRLSCAASGFIFSSYAMHWVRQAPGNGLEWVAFMSYDGSNKKYADSVKGRFTISRDNPKNTLYLQMNSLRAEDTAVYYCARDRGIAAGGNYYYYGMDVWGQGTTVTVSS
VL: EIVLTQSPATLSLSPGERATLSCRASQSVYSYLAWYQQKPGQAPRLLIYDASNRATGIPARFSGSGSGTDFTLTISSLEPEDFAVYYCQQRSNWPPFTFGPGTKVDIKR
notes: also called GenTNV148.26.12; C420A
Take B1: the “IC50 (read off the curve)” value with recombinant human TNFα [1] was about 4 ng/mL. Besides, the “fold better at blocking TNF binding than TNV118 and TNV14” value in the experiment with recombinant human TNFα [2] was about 4 fold. In addition, the “neutralizing TNFα bioactivity” value with recombinant human TNFα [3] stood at 4 fold.

B2: TNV86 (antibody, V domains shown)
VH: QVQLVESGGGVVQPGRSLRLSCAASGFIFSSYAMHWVRQAPGNGLEWVAFMSYDGSNKKYADSVKGRFTISRDNPKNTLYLQMNSLRAEDTAVYYCARDRGIAAGGNYYYYGMDVWGQGTTVTVSS
VL: EIVLTQSPATLSLSPGERATLSCRASQSVYSYLAWYQQKPGQAPRLLIYDASNRATGIPARFSGSGSGTDFTLTISSLEPEDFAVYYCQQRSNWPPFTFGPGTKVDIKR
notes: Hybridoma IgG1 kappa; also called GenTNV86.14.34; C417A
B2: the “fold better at blocking TNF binding than TNV118 and TNV14” value with recombinant human TNFα [2] was about 4 fold.

B3: golimumab (SIMPONI) (antibody, human IgG1, kappa, V domains shown)
VH: QVQLVESGGGVVQPGRSLRLSCAASGFIFSSYAMHWVRQAPGNGLEWVAFMSYDGSNKKYADSVKGRFTISRDNSKNTLYLQMNSLRAEDTAVYYCARDRGIAAGGNYYYYGMDVWGQGTTVTVSS
VL: EIVLTQSPATLSLSPGERATLSCRASQSVYSYLAWYQQKPGQAPRLLIYDASNRATGIPARFSGSGSGTDFTLTISSLEPEDFAVYYCQQRSNWPPFTFGPGTKVDIKR
modifications: N-glycosylated on asparagine 306
notes: also called rTNV148B
Regarding B3, the binding result with human lymphotoxin was “no binding”.
